# Literature values in patent US20260256431A1, “IMAGING OF MATRIX METALLOPROTEINASE INHIBITORS” (Micro Vide, LLC, priority 2022, published 2026).
# B1: rTIMP-3: recombinant tissue inhibitor of metalloproteinases-3 (protein, UniProt P35625 24-211, looked up)
# Metalloproteinase inhibitor 3: CTCSPSHPQDAFCNSDIVIRAKVVGKKLVKEGPFGTLVYTIKQMKMYRGFTKMPHVQYIHTEASESLCGLKLEVNKYQYLLTGRVYDGKMYTGLCNFVERWDQLTLSQRKGLNYRYHLGCNCKIKSCYYLPCFVTSKNECLWTDMLSNFGYPGYQSKHYACIRQKGGYCSWYRGWAPPDKSIINATDP
# System: MMP-2, MMP-9, and MMP-14
molecule,measurement,setting,value
B1,MMP activity and LV remodeling and indices of heart failure progression,"intracoronary delivery in pigs at the time of reperfusion, earlier study",favorably reduced
same,"tissue MMP-2, MMP-9, and MMP-14 activity","sustained release of rTIMP-3 from a hydrogel, observed previously",inhibition
